Data on two molecules can be found in paper PMC12658140 (Nature Communications, 2025).

Experiment [1] addresses H14N5 A/mallard/Astrakhan/263/1982 HA protein (Influenza A virus H14N5 …, UniProt P26136, strain). Nature of the experiment: ELISA. The settings on record: both partners purified. For orientation: In an ELISA, binding on a coated surface is turned into a signal by an enzyme label.
The target of experiment [2] is H3N2 A/Moscow/10/1999 HA on infected MDCK-SIAT1 cells (Influenza A virus H3N2 A/Moscow/10/1999, UniProt I6SI59, strain). Nature of the experiment: flow cytometry on cells. The settings on record: one partner purified.
Experiment [3] concerns the target T1, H3N2 A/Hong Kong/1/1968 HA protein (Influenza A virus H3N2 A/Hong …, UniProt Q91MA7, strain).
T1 construct: source: bought: SinoBiological
Nature of the experiment: ELISA. The settings on record: both partners purified.

B1: AG2-G02 IgG (antibody, V domains shown)
VH: VQLVQSGAEMKKPGASVKVSCKASGYTFSAYYIHWVRQAPGQGLEWMGRINTDSGGTNFAQQFEGRVTMTRDTSISTAYMELSSLRSDDTAVYYCARGYDFWLGSYRAGGWFDPWGQGTLVTVSS
VL: not shown
notes: copies: 2 + 2
Take B1: the binding result is “no binding (tested: 10 μg mL^−1)” in experiment [1] and “binds” in experiment [2].

B2: 240-14 IgA 2F02 IgG (antibody, V domains shown)
VH: EVQLLESGGGLVQPGGSLRLSCAASGFTFSTYAMSWVRQAPGKGLEWVSTISGSGGSTYDAESVKGRFTISRDNSKNTLYLQMNSLRAEDTAVYYCAKEGGDFWSGYYANWFDPWGQGTLVTVSS
VL: QSALTQPRSVSGSPGQSVTISCTGTRSDVGGYNYVSWYQQHPGKAPKVIIYDVKKRPSGVPDRFSGSKSGNTASLTISGLQAEDEADYYCSAFAGSHTLFGGGTKVTVL
notes: source: Expi293F, transfected, purified (CaptureSelect CH1-XL beads); copies: 2 + 2
In the case of B2, the binding result in experiment [3] and in experiment [2] was “binds” in each case.
